Results taken from the nanobody polyreactivity screen of Harvey et al. (2022).

experiment: yeast display, Sf9 membrane polyspecificity reagent, FACS + sequencing; frameworks hold sequencing errors
Outline: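 Nanobodies came from a synthetic yeast display library in Saccharomyces cerevisiae BJ5465, induced with galactose for 36–48 hours and stained for 1 hour at 4 °C with 10% biotinylated, detergent-solubilized Sf9 membrane reagent. Cells were enriched on streptavidin microbeads and then FACS-sorted, with low and high (top ~1%) gates set on anti-HA fluorescence for expression and streptavidin fluorescence for reagent binding. Each polyreactivity label reflects the gate a clone came from. Genes were amplified by colony PCR, sequenced by MiSeq 2 × 250 and filtered by CDR length.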

Sequence	polyreactivity (PSR sort gate)
QVQLVESGGGLVQAGGSLRLSCDASGSTIPTYAMGWYRQAPGKERELVASISVTTGSTYYADSVKGRFTISRDNAKNTVYLNMKSLKPEDTAVYFCAKRTYSRKFRGSYNYWGQGTEVTVSS	high polyreactivity
QVQLVESGGGLVQAGGSLRLSCGASGFIFKSYAMGWYRQATGKERELVAAFSRSGSSTYYADSVMGRFTISRDNAKNTVYLQMNSLKPEDTAVYYCAKKGYRFIHFGYDYWGQGTQVTVSS	high polyreactivity
QVQLVESGGGLVQAGGSLRLSCGASGFIFLKNAMGWYRQAPGKARELVAAITRSGDITYYADSVKGRFTISRDNAKNTVYLKMNSLKPEDTAVYYCATTREFPSYDSWGQGTQVTVSS	low polyreactivity
QVQLVESGGGLVQAGGSLRLSCGASGFTFPYYAMGWYIQAPGKERELVAAITSSGGSTYYADSVKGRFTISRDNAKNTVYLQMNSLNPEDTAVYYCAVDAYYYKWYDYWGQGTQVTVSS	high polyreactivity
QVQLVESGGGLVQAGGSLRLSCGASGFTFYSYAMGWYRPARGKARELVATITKSGGNTYYADSVKGRFTISRDNAKNTVYLQMTSLKPVDTAVYYCAAATKVGRYKRKTVSYYYWCQGTQVTVSS	high polyreactivity
QVQLVESGGGLVQAGGSLRLSCGASGLTFAYYAMRWYRQAPGKERELVAAISSSGRSTYYADSVKGRFTISRDNAKNTVYLQMNSLTEEDTAVSYCDKVGPWYYWERDYWGQCTQVTVSS	high polyreactivity
QVQLVESGGGLVQAGGSLRLSCGASGNTINVNTMGWYRQGPGKERELVAAINSGDNTNYADSVKGRFTISRDNAKNTVYLQMNSLNPVDTAVYSCAAQDYARGVVPGRRAIGYWGQCTQVTVSS	high polyreactivity
QVQLVESGGGLVQAGGSLRLSCGASGRIFRGYAMGWYRQGPGKERELVAAISRRGGSTYYADSVKGRFTISRDNAKNTVYLQMNSLKPVDTAVYYCNADGVHYVAYAGGYWGQGTQVTVSS	high polyreactivity
QVQLVESGGGLVQAGGSLRLSCGASGRSSYVYAMGWYRQAPGKERELVAAITSSGGSTYYADSVKGRFTISRDNAKNTVYLQMNSLKPEDTAVYYCAAETYPVWGVAFYYWGQGTQVTVSS	high polyreactivity
QVQLVESGGGLVQAGGSLRLSCGASGRTFKLYAMGWYRQAPAKERELVATIRRSGTRTYADSVKGRFTISRDNAKNTVYLQINSLKQEDTAVYYCAATTYAYVYHRYDYWGQGTQVTVSS	high polyreactivity
QVQLVESGGGLVQAGGSLRLSCGASGSIFPDYAMGWYRQAPGKERELVAAITWSGGSTYYADSVKGRFTISRDNAKNTVNLQMNSLKPEDTAVYYCAAQLDPEWRGYFDQYGYDYWGQGTQVTVST	low polyreactivity
QVQLVESGGGLVQAGGSLRLSCGASGSIRANMGSYRQAPGKETELVAVITTSGASTSYAVSVKGRFTISRDNAKNTVYLQMNRLKPEDTAVYYCAADIYYYPHTYYRDGYYYWGQGSQVTVSS	low polyreactivity
QVQLVESGGGLVQAGGSLRLSCGASGSTFRLYALGWYRQAPGNEWAFVAAISFRGGSTYYADSVKGRFTISRDNAQNTVYLQMNSLKPEDTAVYYCAAEVGTGGVRTPRYEYWGQGTQVTVSS	high polyreactivity
QVQLVESGGGLVQAGGSLRLSCGASGSTSKYYAMGWYRQAPGKERELVAAITWSDVSTYFADSVKGRFTISRDNAKHNVYLQMNSLKPEDTAVYYCNAGYDYWGQGTQVTVSS	low polyreactivity
QVQLVESGGGLVQAGGSLRLSCGASGTIFDYYVMGWYRQAPVKERELVAAISWSGASTYYADSVKGRFTISRDNAKNTVYLQMNSLKPDDTAVYYCAADYGVNTLIDYDYWGQGTQVTVSS	low polyreactivity
QVQLVESGGGLVQAGGSLRLSCPASGFNFLYYAMGWYRQAPGTEREFVAAIRSSGTTTSYADSVKGRFTISRDNAKNTVYLEMISLKPVDTAVYYCAAGYFGPQQYYYWGQGSQVTVSS	high polyreactivity
QVQLVESGGGLVQAGGSLRLSCPASGFNFRYYAIGWYRQAPGKERQLVAAISRIGGSTNYADSVKGRFTISRDNAKNTVYLQLNSLKPEDTAVYYCAVAEGYSPAYLRDYWGQGSQVTVSS	high polyreactivity
QVQLVESGGGLVQAGGSLRLSCPASGFTFKSYAMGWYRQAPGKERELVAAISRGGSTYYADSVKGRFTISRDNAKNTVYLQMNSLKPEDTAVYYCNKTRYSRSYYEYDYWGQGTQVTVSS	low polyreactivity
QVQLVESGGGLVQAGGSLRLSCPASGFTFTIYAMGWYRQAPGKERELLATISGRAGRTYYADSVKGRFTISRDNAKNTVYLQMNSLKPEDTAVYDCAARVWYQGYKSMGYWGQGTQVTVSS	high polyreactivity
QVQLVESGGGLVQAGGSLRLSCPASGFTFYGYAMGWYRQAPGKERELVAAIRYSGGSTYYADSVKGRFTISRDNAKNTVYLQMNSLKPEDTAVYYCNKRLIYYRGTYYSRRFDYWGQGTQVTVSS	high polyreactivity
QVQLVESGGGLVQAGGSLRLSCPASGFTFYRYAMGWYRQSPGKEREFVAAITWSGGSTYYADSVKGRFTISRDNAKNTVYLQMNSLKPEDTAVYYCAAYVALDGTREYDYWGQGTQVTVSS	high polyreactivity
